Reference: US9686971B2, “Methods for testing anti-thrombotic agents” (The Trustees of Columbia University in the City of New York, priority 2006, dated 2017)

Columns and labels:
[1] = in vivo; cited from earlier work
GPIb alpha = target: T1, GPIb alpha (Homo sapiens, UniProt P07359); experiment: Transient tether kinetics of VWF-A1 coated microspheres on surface-immobilized human platelets; type: binding; details: VWF-A1 coated beads, wall shear stress 1 dyn cm^−2
T1 construct: enables evaluation of GPIb alpha in its native form (i.e. correct orientation and proper post-translational modification); endogenous in cells; host or cells: human platelets purified by gel filtration, immobilized on Fab fragments of mAb 7E3
T1 sequence (P07359 17-652): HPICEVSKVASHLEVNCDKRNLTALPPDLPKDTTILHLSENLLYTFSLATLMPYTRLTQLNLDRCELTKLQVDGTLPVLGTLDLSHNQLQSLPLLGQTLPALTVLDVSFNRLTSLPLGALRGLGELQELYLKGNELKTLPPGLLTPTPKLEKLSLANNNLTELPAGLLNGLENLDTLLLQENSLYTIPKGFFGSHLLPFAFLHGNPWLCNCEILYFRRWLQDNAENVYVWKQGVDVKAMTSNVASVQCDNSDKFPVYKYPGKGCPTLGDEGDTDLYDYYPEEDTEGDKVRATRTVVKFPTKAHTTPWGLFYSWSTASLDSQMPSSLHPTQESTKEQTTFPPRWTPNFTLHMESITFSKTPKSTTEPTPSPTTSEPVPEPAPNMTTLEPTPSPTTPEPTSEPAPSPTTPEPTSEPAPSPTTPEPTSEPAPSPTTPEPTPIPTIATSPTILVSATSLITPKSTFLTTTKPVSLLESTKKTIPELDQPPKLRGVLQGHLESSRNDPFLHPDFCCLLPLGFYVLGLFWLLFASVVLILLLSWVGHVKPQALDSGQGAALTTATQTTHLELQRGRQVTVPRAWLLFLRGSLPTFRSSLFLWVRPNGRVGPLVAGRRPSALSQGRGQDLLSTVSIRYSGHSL
Method: In flow assays involving protein-coated microspheres, human or murine platelets purified by gel filtration are incubated with 10 mM sodium azide (NaN3), 50 ng/ml prostaglandin E1, and 10 μm indomethacin (Sigma Immunochemicals, St. Louis, Mo.) to reduce the possibility of activation and potential alterations in expression and/or distribution of GPIb alpha on their surface. Platelets are subsequently allowed to settle in stasis on Fab fragments of monoclonal antibodies that recognize either human (i.e., mAb 7E3) or murine (i.e., mAb NAD-1) alpha IIb/β3 in order to form a reactive substrate. […] Platelet coverage of <10% will be bound in this manner can remain relatively unactivated for up to 30 min as evident by morphology on light microscopic examination (FIG. 7A) and lack of expression of P-selectin by fluorescence microscopy (FIG. 7B).
To reduce the possibility of multiple bond formation that would result in a prolongation in interaction times between the beads and immobilized platelets, the lowest site densities of VWF-A1 capable of supporting these brief interactions is used, a value we found to correspond to ˜30 molecules μm^2. […] The force acting on the tether bond was calculated from force balance equations as stated above and koff plotted as a function of these forces. […]

thrombus formation = details: mice; given the day before and 2 hours prior; cited from earlier work
murine platelets [2] = experiment: In vitro parallel plate flow chamber platelet adhesion on recombinant VWF-A1, 800 s^-1, murine platelets; type: cell-based, mouse; details: wall shear rate 800 s^-1
Method: (§1) The protein was subsequently used in a series of in vitro flow chamber assays to assess function. Washed human or murine platelets (5×10^7/ml) were infused through a parallel plate flow chamber containing glass cover slips coated with either human VWF-A1 or mouse VWF-A1 protein (100 μg/ml final concentration) at a shear rate of 800 s^−1. After 5 min of continuous flow, adherent platelets were quantified.
In the case of the latter, the murine A1 fragment was inserted into pET-11b (Stratagene) and purified as previously described (53).
Support for this hypothesis is provided by mutagenesis studies. By analyzing the data obtained from the crystal structure of the murine VWF-A1 domain, we have identified several residues that may participate in interactions with GPIb alpha (FIG. 15C). Residue 1326 was initially chosen for study and was mutated to the corresponding amino acid at the identical location in its human counterpart (from Arg to His). Subsequently, the ability of murine and human platelets to interact with this mutant protein substrate was evaluated at a wall shear rate of 800 s^−1. Incorporation of a histidine for arginine at position 1326 in murine VWF-A1 reduced murine platelet adhesion by ˜5-fold and increased translocation velocities of cells by ˜7-fold as compared to the WT mouse protein (FIGS. 13A, 13B, 16A, and 16B). […]

human platelets [3] = experiment: In vitro parallel plate flow chamber platelet adhesion on recombinant VWF-A1, 800 s^-1, human platelets; type: cell-based; details: wall shear rate 800 s^-1
Method: as §1
Support for this hypothesis is provided by mutagenesis studies. By analyzing the data obtained from the crystal structure of the murine VWF-A1 domain, we have identified several residues that may participate in interactions with GPIb alpha (FIG. 15C). Residue 1326 was initially chosen for study and was mutated to the corresponding amino acid at the identical location in its human counterpart (from Arg to His). Subsequently, the ability of murine and human platelets to interact with this mutant protein substrate was evaluated at a wall shear rate of 800 s^−1. Incorporation of a histidine for arginine at position 1326 in murine VWF-A1 reduced murine platelet adhesion by ˜5-fold and increased translocation velocities of cells by ˜7-fold as compared to the WT mouse protein (FIGS. 13A, 13B, 16A, and 16B). […] These studies support the hypothesis that from a structural and functional standpoint, mouse and human VWF-A1 are very similar.

murine platelets [4] = experiment: Ex vivo platelet adhesion, murine whole blood over immobilized plasma VWF or rVWF-A1, 1600 s^-1; type: cell-based, mouse
Method: Experiments were performed in a parallel-plate flow chamber as previously described (Offermanns, S. (2006) Circ. Res. 99, 1293-1304). For studies involving plasma VWF, a polyclonal anti-VWF antibody (Dako) was absorbed overnight (4° C.) to a six well tissue culture plate. Subsequently, the plate was washed and non-specific interactions blocked by the addition of TBS containing 3% BSA, pH 7.4 (1 h, 37° C.). Human or murine plasma obtained from heparinized whole blood was added and the plates placed at 37° C. for an additional 2 h. Generation, purification, and surface-immobilization of recombinant VWF-A1 proteins was performed as previously described (Doggett, T. A. et al. Biophys. J. 83, 194-205 (2002)). Both human and murine VWF-A1 constructs consist of amino acid residues 1238 to 1471, with a single intra-disulfide bond formed between residues 1272 and 1458 and were generated in bacteria. Citrated whole blood (150 μl) collected via cardiac puncture from anesthetized homozygous VWF^1326R>H or WT mice or from venopuncture from human volunteers was perfused over the immobilized substrates at a wall shear rate of 1600 s^−1 for 4 min, followed by washing with Tyrode's buffer under the identical flow conditions. The number of platelets attached per unit area (0.07 mm^2) and translocation velocities were determined by off-line analysis (Image-Pro Plus, Media Cybernetics). […]

human platelets [5] = experiment: Ex vivo platelet adhesion, human whole blood over immobilized plasma VWF or rVWF-A1, 1600 s^-1; type: cell-based; details: human whole blood, 1600 s^-1
Method: Experiments were performed in a parallel-plate flow chamber as previously described (Offermanns, S. (2006) Circ. Res. 99, 1293-1304). For studies involving plasma VWF, a polyclonal anti-VWF antibody (Dako) was absorbed overnight (4° C.) to a six well tissue culture plate. Subsequently, the plate was washed and non-specific interactions blocked by the addition of TBS containing 3% BSA, pH 7.4 (1 h, 37° C.). Human or murine plasma obtained from heparinized whole blood was added and the plates placed at 37° C. for an additional 2 h. Generation, purification, and surface-immobilization of recombinant VWF-A1 proteins was performed as previously described (Doggett, T. A. et al. Biophys. J. 83, 194-205 (2002)). Both human and murine VWF-A1 constructs consist of amino acid residues 1238 to 1471, with a single intra-disulfide bond formed between residues 1272 and 1458 and were generated in bacteria. Citrated whole blood (150 μl) collected via cardiac puncture from anesthetized homozygous VWF^1326R>H or WT mice or from venopuncture from human volunteers was perfused over the immobilized substrates at a wall shear rate of 1600 s^−1 for 4 min, followed by washing with Tyrode's buffer under the identical flow conditions. The number of platelets attached per unit area (0.07 mm^2) and translocation velocities were determined by off-line analysis (Image-Pro Plus, Media Cybernetics). For GPIbα inhibition studies, the function-blocking mAb 6D1 (20 μg/ml) or mAb SZ2 (20 μg/ml; Beckman Coulter) was added to anticoagulated human blood for 30 min prior to use. Experiments were performed in triplicate on two separate days. An ELISA was used to ensure equivalent coating concentration of plasma and recombinant proteins (Denis, C. et al. (1998) Proc. Natl. Acad. Sci. USA 95, 9524-9529).

Molecule: CCCCS(=O)(=O)N[C@@H](Cc1ccc(OCCCCC2CCNCC2)cc1)C(=O)O [Tirofiban]
- plasma half-life [1]: approximately 2 hours

Molecule: WT human VWF-A1: wild type recombinant human VWF-A1 domain
- koff (GPIb alpha): 6.5 s⁻¹

Molecule: COC(=O)[C@H](c1ccccc1Cl)N1CCc2sccc2C1 [clopidogrel]
- maximal effective dose to reduce thrombus size and delay its formation (thrombus formation): 50 mg/kg

B1: murine VWF-A1 1326R>H: recombinant mouse VWF-A1 domain with HIS for ARG at residue 1326 (protein)
chain: EDTPEPPLHNFYCSKLLDLVFLLDGSSMLSEAEFEVLKAFVVGMMERLHISQKRIRVAVVEYHDGSHAYLELKARKRPSELRRITSQIKYTGSQVASTSEVLKYTLFQIFGKIDRPEASHITLLLTASQEPPRMARNLVRYVQGLKKKKVIVIPVGIGPHASLKQIRLIEKQAPENKAFLLSGVDELEQRRDEIVSYLCDLAPEAPAPTQPPQVAHVTVSP
- increase of translocation velocities of murine platelets compared to WT mouse protein (murine platelets [2]): ~7 fold
- reduction of murine platelet adhesion compared to WT mouse protein (murine platelets [2]): ~5 fold
- human platelet interactions with the protein substrate (human platelets [3]): comparable to that of WT human VWF-A1
- reduction of mouse platelet adhesion (murine platelets [4]): ~75%
- human platelet accumulation on immobilized protein (human platelets [5]): comparable to its wild-type (WT) human counterpart
